In the data set the test system is CC(=O)Oc1c[nH]c2ccccc12. Nature of the data set: purified protein.

This note sets out measurements from paper PMC10357428.

For the substance “CanB (Mtb β-carbonic anhydrase, Rv3588c) (Mycobacterium tuberculosis H37Rv)”, the Michaelis-Menten constant (Km) was determined as 4.5 ± 0.6 mM.

For orientation: Km means the substrate concentration at which the rate is half of its maximum.
